Measured values taken from patent publication US20120276537.

Tested on: ZFNRosa (Rosa26-specific zinc finger nuclease pair) (synthetic construct)
Assay: cell_activity
Details: mouse zygote mRNA microinjection; 13 of 58 pups lost XbaI site; ZFN pair, half-sites of the monomers not stated; homologous recombination also seen (pup 22 …)

TGCAACTCCAGTCTTTCTAGAAGATGGGCGGGAGTC (double strand) [Rosa26 intron 1 ZFN target site]
activity (% of pups with NHEJ XbaI loss): 22
